This is an account of results in patent publication US20260167721A1 (ABLEXIS, published 2026).

For test [1], the target named is T1, human CD3 (TCR/CD3 complex on the cell surface) (human, UniProt P07766 23-207; P04234 22-171; P09693 23-182).
T1 construct: whole, on cells; Native CD3 on human Pan-T cells or Jurkat wild-type cells; also called CD3 on Pan-T cells; CD3 on Jurkat WT cells
The test is described as follows: flow cytometry, Jurkat WT cells, 1 ug/mL.

Test [2] concerns the target T1, human CD3 (TCR/CD3 complex on the cell …). The test is described as follows: flow cytometry, Jurkat WT gMFI over Jurkat KO gMFI, 1 ug/mL.
Test [3] has the same target. The test is described as follows: flow cytometry, Pan-T cells, 1 ug/mL.
Test [4] shares this target. The test is described as follows: flow cytometry, Jurkat WT cells, 10 ug/mL.
For test [5] the target is unchanged. The test is described as follows: flow cytometry, Pan-T cells, 10 ug/mL. (In general: In flow cytometry, cells or beads pass a laser one at a time.)
For test [6] the target is unchanged. The test is described as follows: flow cytometry, Jurkat WT gMFI over Jurkat KO gMFI, 10 ug/mL.

T1 sequence (P07766 23-207, chain 1 of 3): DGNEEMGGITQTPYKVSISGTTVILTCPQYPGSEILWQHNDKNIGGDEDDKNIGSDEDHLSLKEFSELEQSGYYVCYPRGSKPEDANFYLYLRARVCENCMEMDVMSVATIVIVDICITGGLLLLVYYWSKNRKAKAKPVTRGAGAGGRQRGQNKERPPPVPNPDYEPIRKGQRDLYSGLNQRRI
T1 sequence (P04234 22-171, chain 2 of 3): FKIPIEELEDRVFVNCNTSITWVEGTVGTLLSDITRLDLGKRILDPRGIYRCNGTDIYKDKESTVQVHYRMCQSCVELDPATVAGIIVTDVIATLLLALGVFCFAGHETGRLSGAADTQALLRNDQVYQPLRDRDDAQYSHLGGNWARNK
T1 sequence (P09693 23-182, chain 3 of 3): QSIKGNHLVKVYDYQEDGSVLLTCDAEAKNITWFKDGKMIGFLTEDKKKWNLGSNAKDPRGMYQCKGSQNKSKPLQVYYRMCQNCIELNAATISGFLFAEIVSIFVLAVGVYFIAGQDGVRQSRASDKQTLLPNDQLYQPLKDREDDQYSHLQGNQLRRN

B1: CD3 × CD33-BspAb80 (bispecific antibody)
chain 1: QVQLQESGPGLVKPSETLSLTCTVSGGSISSYYWSWIRQPAGKCLEWIGRIYTSGSTKYNPSLKSRVTMSVDTSKNQFSLKLISVTAADTAVYFCARERIRDLYFDYWGQGTLVTVSSGGGGSGGGGSGGGGSGGGGSNFMLTQPHSVSESPGKTVTISCTRTSGSIASNYVQWYQQRPGSSPTTVIYEDNQRPSGVPDRFSGSIDSSSNSASLTISGLKTEDEAAYYCQSYDRSNRVFGCGTKLTVLDKTHTCPPCPAPEFEGGPSVFLFPPKPKDTLMISRTPEVTCVVVDVSHEDPEVKFNWYVDGVEVHNAKTKPREEQYNSTYRVVSVLTVLHQDWLNGKEYKCKVSNKALPASIEKTISKAKGQPREPQVYTLPPCREEMTKNQVSLWCLVKGFYPSDIAVEWESNGQPENNYKTTPPVLDSDGSFFLYSKLTVDKSRWQQGNVFSCSVMHEALHNHYTQKSLSLSPGK
chain 2: EVQLVQSGAEVKKPGSSVKVSCKASGYTITDSNIHWVRQAPGQSLEWIGYIYPYNGGTDYNQKFKNRATLTVDNPTNTAYMELSSLRSEDTAFYYCVNGNPWLAYWGQGTLVTVSSASTKGPSVFPLAPSSKSTSGGTAALGCLVKDYFPEPVTVSWNSGALTSGVHTFPAVLQSSGLYSLSSVVTVPSSSLGTQTYICNVNHKPSNTKVDKRVEPKSCDKTHTCPPCPAPEFEGGPSVFLFPPKPKDTLMISRTPEVTCVVVDVSHEDPEVKFNWYVDGVEVHNAKTKPREEQYNSTYRVVSVLTVLHQDWLNGKEYKCKVSNKALPASIEKTISKAKGQPREPQVCTLPPSREEMTKNQVSLSCAVKGFYPSDIAVEWESNGQPENNYKTTPPVLDSDGSFFLVSKLTVDKSRWQQGNVFSCSVMHEALHNRFTQKSLSLSPGK
chain 3: DIQLTQSPSTLSASVGDRVTITCRASESLDNYGIRFLTWFQQKPGKAPKLLMYAASNQGSGVPSRFSGSGSGTEFTLTISSLQPDDFATYYCQQTKEVPWSFGQGTKVEVKRTVAAPSVFIFPPSDEQLKSGTASVVCLLNNFYPREAKVQWKVDNALQSGNSQESVTEQDSKDSTYSLSSTLTLSKADYEKHKVYACEVTHQGLSSPVTKSFNRGEC
In the case of B1, the gMFI in test [1] was determined as 50500 gMFI; in test [3] it was 330000 gMFI; in test [4], 59400 gMFI; in test [5], 486000 gMFI. Also, the entries for the “Jurkat WT/KO (Fold)” value in test [2] and in test [6] were 13.1 fold and 15 fold, respectively. Besides, the “% Positive” value is 99.7% in test [3] and 99.8% in test [5].

B2: CD3 × CD33-BspAb81 (bispecific antibody)
chain 1: QVQLQESGPGLVKPSQTLSLTCTVSGGSISSGGYYWSWIRQHPGKCLEWIGYIYYSGSTYYNPSLKSRVTISVDTSKDQFSLKLSSVTAADTAVYYCARERKTSLPFDIWGQGTMVTVSSGGGGSGGGGSGGGGSGGGGSNFMLTQPHSVSESPGKTVTISCTRSSGSIASNYVQWYQQRPGSSPTTVIYEDNQRPSGVPDRFSGSIDSSSNSASLTISGLKTEDEAYYYCQSFDSSNRVFGCGTKLTVLDKTHTCPPCPAPEFEGGPSVFLFPPKPKDTLMISRTPEVTCVVVDVSHEDPEVKFNWYVDGVEVHNAKTKPREEQYNSTYRVVSVLTVLHQDWLNGKEYKCKVSNKALPASIEKTISKAKGQPREPQVYTLPPCREEMTKNQVSLWCLVKGFYPSDIAVEWESNGQPENNYKTTPPVLDSDGSFFLYSKLTVDKSRWQQGNVFSCSVMHEALHNHYTQKSLSLSPGK
chain 2: EVQLVQSGAEVKKPGSSVKVSCKASGYTITDSNIHWVRQAPGQSLEWIGYIYPYNGGTDYNQKFKNRATLTVDNPTNTAYMELSSLRSEDTAFYYCVNGNPWLAYWGQGTLVTVSSASTKGPSVFPLAPSSKSTSGGTAALGCLVKDYFPEPVTVSWNSGALTSGVHTFPAVLQSSGLYSLSSVVTVPSSSLGTQTYICNVNHKPSNTKVDKRVEPKSCDKTHTCPPCPAPEFEGGPSVFLFPPKPKDTLMISRTPEVTCVVVDVSHEDPEVKFNWYVDGVEVHNAKTKPREEQYNSTYRVVSVLTVLHQDWLNGKEYKCKVSNKALPASIEKTISKAKGQPREPQVCTLPPSREEMTKNQVSLSCAVKGFYPSDIAVEWESNGQPENNYKTTPPVLDSDGSFFLVSKLTVDKSRWQQGNVFSCSVMHEALHNRFTQKSLSLSPGK
chain 3: DIQLTQSPSTLSASVGDRVTITCRASESLDNYGIRFLTWFQQKPGKAPKLLMYAASNQGSGVPSRFSGSGSGTEFTLTISSLQPDDFATYYCQQTKEVPWSFGQGTKVEVKRTVAAPSVFIFPPSDEQLKSGTASVVCLLNNFYPREAKVQWKVDNALQSGNSQESVTEQDSKDSTYSLSSTLTLSKADYEKHKVYACEVTHQGLSSPVTKSFNRGEC
As for B2, the gMFI in test [1] turned out to be 24100 gMFI; in test [3], 79900 gMFI; in test [4] it was 55100 gMFI; in test [5], 369000 gMFI. The entries for the “Jurkat WT/KO (Fold)” value in test [2] and in test [6] were 7.1 fold and 13.5 fold, respectively. In addition, the “% Positive” value in test [3] worked out at 99.7%; in test [5], 99.8%.

B3: CD3 × CD33-BspAb82 (bispecific antibody)
chain 1: EVQLVESGGGLVKPGGSLRLSCAASGLTFSTYSMNWVRQAPGKCLEWVSSISSSGSYVYYADSVKGRFTMSRDNAKNSLYLQMNSLRAEDTAVYYCARERRELLFDYWGQGTLVTVSSGGGGSGGGGSGGGGSGGGGSNFMLTQPHSVSESPGKTVTISCTRSSGSIASNYVQWYQQRPGSSPTSVIYEDNQRPSGVPDRFSGSIDSSSNSASLTISGLKTEDEADYYCQSYDRSNRVFGCGTKLTVLDKTHTCPPCPAPEFEGGPSVFLFPPKPKDTLMISRTPEVTCVVVDVSHEDPEVKFNWYVDGVEVHNAKTKPREEQYNSTYRVVSVLTVLHQDWLNGKEYKCKVSNKALPASIEKTISKAKGQPREPQVYTLPPCREEMTKNQVSLWCLVKGFYPSDIAVEWESNGQPENNYKTTPPVLDSDGSFFLYSKLTVDKSRWQQGNVFSCSVMHEALHNHYTQKSLSLSPGK
chain 2: EVQLVQSGAEVKKPGSSVKVSCKASGYTITDSNIHWVRQAPGQSLEWIGYIYPYNGGTDYNQKFKNRATLTVDNPTNTAYMELSSLRSEDTAFYYCVNGNPWLAYWGQGTLVTVSSASTKGPSVFPLAPSSKSTSGGTAALGCLVKDYFPEPVTVSWNSGALTSGVHTFPAVLQSSGLYSLSSVVTVPSSSLGTQTYICNVNHKPSNTKVDKRVEPKSCDKTHTCPPCPAPEFEGGPSVFLFPPKPKDTLMISRTPEVTCVVVDVSHEDPEVKFNWYVDGVEVHNAKTKPREEQYNSTYRVVSVLTVLHQDWLNGKEYKCKVSNKALPASIEKTISKAKGQPREPQVCTLPPSREEMTKNQVSLSCAVKGFYPSDIAVEWESNGQPENNYKTTPPVLDSDGSFFLVSKLTVDKSRWQQGNVFSCSVMHEALHNRFTQKSLSLSPGK
chain 3: DIQLTQSPSTLSASVGDRVTITCRASESLDNYGIRFLTWFQQKPGKAPKLLMYAASNQGSGVPSRFSGSGSGTEFTLTISSLQPDDFATYYCQQTKEVPWSFGQGTKVEVKRTVAAPSVFIFPPSDEQLKSGTASVVCLLNNFYPREAKVQWKVDNALQSGNSQESVTEQDSKDSTYSLSSTLTLSKADYEKHKVYACEVTHQGLSSPVTKSFNRGEC
As for B3, the gMFI worked out at 54500 gMFI in test [1], 319000 gMFI in test [3], 58600 gMFI in test [4] and 462000 gMFI in test [5]. In addition, the “Jurkat WT/KO (Fold)” value in test [2] stood at 12.9 fold; in test [6], 14.4 fold. Besides, the results for the “% Positive” value in test [3] and in test [5] were 99.5% and 99.9%, respectively.

B4: CD3 × CD33-BspAb83 (bispecific antibody)
chain 1: EVQLVESGGGLVKPGGSLRLSCVASGFTFSRYSMNWVRQAPGKCLEWVSSISSSSRYTYYADSLKGRFIMSRDNAKNSLFLQMNSLRAEDTAVYYCARNLYNALDYWGQGTLVTVSSGGGGSGGGGSGGGGSGGGGSFMLTQPHSVSESPGKTVTISCTRSSGSIASNYVQWYQQRPGSSPTTVIYEDNQRPSGVPDRFSGSIDSSSNSASLTISGLQTEDEADYYCQSYDSSNRVFGCGTKLTVLDKTHTCPPCPAPEFEGGPSVFLFPPKPKDTLMISRTPEVTCVVVDVSHEDPEVKFNWYVDGVEVHNAKTKPREEQYNSTYRVVSVLTVLHQDWLNGKEYKCKVSNKALPASIEKTISKAKGQPREPQVYTLPPCREEMTKNQVSLWCLVKGFYPSDIAVEWESNGQPENNYKTTPPVLDSDGSFFLYSKLTVDKSRWQQGNVFSCSVMHEALHNHYTQKSLSLSPGK
chain 2: EVQLVQSGAEVKKPGSSVKVSCKASGYTITDSNIHWVRQAPGQSLEWIGYIYPYNGGTDYNQKFKNRATLTVDNPTNTAYMELSSLRSEDTAFYYCVNGNPWLAYWGQGTLVTVSSASTKGPSVFPLAPSSKSTSGGTAALGCLVKDYFPEPVTVSWNSGALTSGVHTFPAVLQSSGLYSLSSVVTVPSSSLGTQTYICNVNHKPSNTKVDKRVEPKSCDKTHTCPPCPAPEFEGGPSVFLFPPKPKDTLMISRTPEVTCVVVDVSHEDPEVKFNWYVDGVEVHNAKTKPREEQYNSTYRVVSVLTVLHQDWLNGKEYKCKVSNKALPASIEKTISKAKGQPREPQVCTLPPSREEMTKNQVSLSCAVKGFYPSDIAVEWESNGQPENNYKTTPPVLDSDGSFFLVSKLTVDKSRWQQGNVFSCSVMHEALHNRFTQKSLSLSPGK
chain 3: DIQLTQSPSTLSASVGDRVTITCRASESLDNYGIRFLTWFQQKPGKAPKLLMYAASNQGSGVPSRFSGSGSGTEFTLTISSLQPDDFATYYCQQTKEVPWSFGQGTKVEVKRTVAAPSVFIFPPSDEQLKSGTASVVCLLNNFYPREAKVQWKVDNALQSGNSQESVTEQDSKDSTYSLSSTLTLSKADYEKHKVYACEVTHQGLSSPVTKSFNRGEC
Take B4: the gMFI in test [1] is 67700 gMFI; in test [3], 566000 gMFI; in test [4] it was 69100 gMFI; in test [5], 598000 gMFI. The “Jurkat WT/KO (Fold)” value in test [2] came to 14 fold; in test [6], 14.3 fold. Besides, the “% Positive” value in test [3] and in test [5] was 99.8% throughout.
